Results taken from the DeepSol protein solubility set.

assay: soluble on expression in E. coli; label from the status in PepcDB or PDB records

| Sequence | soluble on expression in E. coli |
| --- | --- |
| MKATVSTIDNRGNLGKVLKDVTSKDSIKGYTVAAATAGVAQGLNYNPSAMGLDAKSLQTVAVKVTADALIKTAVYGGSFKDNLASAAAGTAASIGGAYGAGKIGDLGLTEGGLAKIALHAGLGGLLSEAMGGDFRTGAIAGGANELLVGVLGDKLEHHHHHH | not soluble |
| MATNLIGLDTTQSQKLANALNNLLANYQVFYMNTRGYHWNIQGKEFFELHAKFEEIYTDLQLKIDELAERILTLSARPMHSFSGYLKAAQIKEHTDSIDGRSSMQGLVDGFSILLHQQRDILELAGETGDEGTSALMSDYIREQEKLVWMLNAWLK | not soluble |
| MGSDKIHHHHHHMKNYKIVAIGDNVCDKYLSRGKMYPGGQCINTCVYGKMNGAETAYIGKYGNDEVAECVQNTLKEIGIDDSHCRHYEGENGFALVTLKNADRVFLGSNKGGIAKEHSYNFDENDFEYIKKFDLIYTNLNSYIEDNLKELHATGVPIAYDFSMRWTDEYLLKVCPYIDVAILSCAHLTAEEREKEMKKVQNYGVKIVLGTIGEDGSYVLYNGDFLYTSAIMAANIIDTMGAGDSYFSTFLCSLLQTSETGKLVEGTKESMKIRLESAMKSGAIFAANVCGMEGAFGYGVPIQGKTEI | not soluble |
| LDPSGKSVIYTKSLAFEKALVRPEKEVKKVHTALDALNSSLADGRGVDFAYMMSIYQVESQMTLIEELGDLIMPDPEKYLNGELTYVSRQDFLSGDVVTKLEVVDLFVKQDNQDFNWSHYAGLLEAIKPARITLADIDYRIGSRWIPLAVYGKFAQETFMGKAYELSDQEVATVLEVSPIDGVITYQSKFAYTYSNATDRSLGVPASRYDSGRKIFENLLNSNQPTITKQVVEGDKKKNVTDVEKTTVLRAKETHLQELFQGFVAKYPEVQQMIEDTYNRLYNRTVSKSYDGSHLTIDGLAQNISLRPHQ | not soluble |
| NEYLNNVKSKYEVQKQRIQIQNDTRYMNEIEAHYNELRRFRHDYQNMLISIDEYLKTDDLEGLQEYYQKNLAPVSNRVLKEKYNLEDLSRVKVKSIKSILFSKLSYAQSQEIEVHFDLKEPLIDITVNELDLDIALGIMLDNAIEASVGHADGEIMSAIFIEKNSTVFLIQNNVFEQLPPLWKLKEAGYSTKGKNRGIGLNSLSKIVNRNENMILETRVLGAVFLQRLTVKRVSQND | not soluble |
| MGSDKIHHHHHHMELRGIWLTNVDSKILHSRDKIAEAMNFLVDTGFNVIFPVVWNKAFTLYPSQLMETTFGQEIDPLYKGRDPLAEVIIEAQRVGLKVIPWFEYGFVSSYKQNGGLILSKKPEWIARERKGNLLVKNGFEWMNALDEEVQNFLIDLVLEVVRNYDIDGIQGDDRMPAFPSEGGYDAKTVGRYRQQFSCHPPQNNKDHKWLQWRANILTDFLARLYGKVKAVKPNILVSMAPSFYKWGFNEYLQDYPTWINREVVDIVHPQLYRRDFSSYKSLVEQLVKQQFIATHLNKIFPGILIKIGSYRISMDYLLEAIAYNRSVGINGEVLFFYEGLRENNDVLAKALRKYVYN | not soluble |
| MGSSHHHHHHSSGLVPRGSHMRTVTGAILAMNLEVKDFVHRDVEEADRRLREIGARKILLQLPDGLKPYAFDYFTYLSQRYDVILSSSPVYGACDIGPSYLYDRVDAIVQVGHSIMRNVKYPRPVIFIEHYRTVDVEDINTEALKNYRRIGLIYSIQYRPVADRVKRILESKGFEVIIGRSDRRMTYDGQVLGCNFSSVHSVEAEVEAFVIVSTGSFHALGSQISTERPVFLLDLNEMSLRSMEKEADTFIRKRYAQIYRAMDAKRICFLVDTRIGQRREKLARMLMDRARDLGKEAVLAYTDNISDQDIQNMGCDLAVYTGCPRVPIDDQDRFTVPVLTPAEFSMAFFKSSKRYVLDEIVSVDEFTDQ | soluble |
| GSDSAITLWQFLLQLLQKPQNKHMICWTSNDGQFKLLQAEEVARLWGIRKNKPNMNYDKLSRALRYYYVKNIIKKVNGQKFVYKFVSYPEILNMDPMTVGRIEGDCESLNFSEVSSSSKDVENGGKDKPPQPGAKTSSRNDYIHSGLYSSFTLNSLN | soluble |
| MGSDKIHHHHHHMSTQTSIEWTEMTWNPIVGCTKVSPGCKHCYAENMAHRLQAMGTPGYENGFKLSLRPEKLREPLQRKKPTIYFVNSMSDLFHEKVPDHYIDQVFEVIREATQHTFQILTKRAERLADYFSKRTPPTNAWLGVSVEDKAYGVPRIDCLRRVNATIRFLSAEPLLEDLGEIDLTDIHWVIVGGESGNKARPMQQEWVDNIHRQCDVSGSAFFFKQWGGWGADGVKRSKKANGRLLNGQTWDEIPLLNLA | not soluble |
| MGHHHHHHSHKNVVHQLSVTLEDLYNGATRKLALQKNVICDKCEGRGGKKGAVECCPNCRGTGMQIRIHQIGPGMVQQIQSVCMECQGHGERISPKDRCKSCNGRKIVREKKILEVHIDKGMKDGQKITFHGEGDQEPGLEPGDIIIVLDQKDHAVFT | not soluble |
| MASYYEILDVPRSASADDIKKAYRRKALQWHPDKNPDNKEFAEKKFKEVAEAYEVLSDKHKREIYDRYGREGLTGTGTGPSRAEAGSGGPGFTFTFRSPEEVFREFFGSGDPFAELFDDLGPFSELQNRGSRHSGPFFTFSSSFPGHSDFSSSSFSFSPGAGAFRSVSTSTTFVQGRRITTRRIMENGQERVEVEEDGQLKSVTINGVPDDLALGLELSRREQQPSVTSRSGGTQVQQTPASCPLDSDLSEDEDLQLAMAYSLSEMEAAGKKPAGGREAQHRRQGRPKAQHQDPGLGGTQEGARGEATKRSPSPEEKASRCLIL | soluble |
| MSGLEAKIAAIRDPDLQAELEAARGGFLFAPIVEHLLFRQRERDAARAQEGAQAEAREAMGRDRRRRDAVREVIESEPTGPENLQHLHSVLALCGLPYRDPGDARDFVREYGRNSLSLSAGRLKNPITGEMELQGLPYGPKARLVLLHLCTEAVRQRSPTIEVADSLSGFMKAMGFAVTGGERGTIGAFKEQLNRLAACSMQLGLWDGEGQASTLNVPPFRQLELWRRGDDGLVWQRTVSFHQDFYDSLIRHALPVDIRAARAFSGSARKLDLLFWTGYRLRALQRPLRLTWDNLHRQFGAENASLRSFRQAFKADLAGLLEVFPRLRIDLDEGGMLLHPADPGSLLVPPKLEHHHHHH | not soluble |
| MTIIINMRSGVDEVKLRIAAKLIREGKLVAFPTETVYGLGADALNERAVRRIFEAKGRPADNPLILHIAKFSQVYELAREVPEEAKVLVERFWPGPLTIVLPRKDVVPDVTTGGLDTVAIRMPANEIALKLIELSGKPIAAPSANISGKPSPTSAEHVADDFYGKIECIIDGGETRIGVESTVIDLTEHPPVLLRPGGLPLEEIEKVIGKVRIHPAVFGKKVDTPKSPGMKYKHYAPNAEVIVVEGPREKVKGKITELVKELKERGKKVGVIGSESYNADEFFFLGSSVEEVAKNLFKALRYMDKAGVDVVIAEGVEERGLGLAVMNRLRKASGYKIVKA | soluble |
| MTDQRRNVYFFHKQDQETNEQARSLTQLAEEHGFTVVNQHSDANIIASIGGDGTFLQAVRKTNFRDDCLYVGITKKGKAHLYCDFHSDEREKMVDAMTFEQIEVRKYPLIEVTVDQASPFHCLNEVSIRSSIIKTFVMDVLIDDLHFETFRGDGMIISTPTGSTAYNKSVAGAVVDPLLPCMQVSELASLNNNTYRTLGSPFVLSSDRKLTLRVVQDGNEHPIIGLDNEALSTRNVKTIEIKLSNKKIKTVKLKDNSFWEKVKRTFLLEHHHHHH | not soluble |
| ARRLYVGNIPFGITEEAMMDFFNAQMRLGGLTQAPGNPVLAVQINQDKNFAFLEFRSVDETTQAMAFDGIIFQGQSLKIRRPHDYQPLPG | soluble |
| MKEKIPFYNEKEFHDMVKKTKKGTFSGWYIIDKDNNSVEFSGKFNRQFKLNKPVIPVNTEYVTRKEFNEYKNSNDQRLTKIETTLAAQGEQINKLTQTVEKQGEQINQLVQVVLLHGEQINKLTQTVEKQGEQIKELQIEQKAQGETLKLILQTLQKMSDRLDKMEVKMDKMEVKMDKMEVKMDKMEKRIDKLESKLEHHHHHH | not soluble |
